Measured values from the RNAGym collection of RNA variant scans (doi:10.7554/elife.80360).

B1: HDV Ribozyme (parent)
chain: GGCCGGCAUGGUCCCAGCCUCCUCGCUGGCGCCGGCUGGGCAACAUUCCGAGGGGACCGUCCCCUCGGUAAUGGCGAAUGGGACCCA

Variants of: B1
Experiment: self-cleavage, relative activity (ratio to wild type); higher = more cleavage; co-transcriptional
Work on G17A U37C yielded a self-cleavage of 1.1. Work on G17A U37G yielded a self-cleavage of 0.172. Work on C18A G73A yielded a self-cleavage of 0.0755. For G17U G82C, the self-cleavage was 0.269. G17U G82U showed a self-cleavage of 0.361. Work on G17C G52C yielded a self-cleavage of 0.19. In the case of G17U C26G, the self-cleavage is reported as 0.608. Work on G17U C26U yielded a self-cleavage of 0.654. For G17A G81A, the self-cleavage was 0.151. Variant A16U U47G has a self-cleavage of 0.692. With G17C C32U the self-cleavage was 0. G17C G74U gave a self-cleavage of 0.0554. In the case of C18G G31A, the self-cleavage is reported as 0.0811. For G17C C19U, the self-cleavage was 0.128. For G17A C49A, the self-cleavage was 0.727. With A16U U72A the self-cleavage was 0.554. For G17U C41A, the self-cleavage was 0.104. In the case of G17U C41U, the self-cleavage is reported as 0.253. Variant G17A U46G has a self-cleavage of 0.229. G17A U46A gave a self-cleavage of 0.308. With G17U C33G the self-cleavage was 0.0831. G17U C33A showed a self-cleavage of 0.143. In the case of C18A G59C, the self-cleavage is reported as 0.0639. With G17C A51U the self-cleavage was 0.443. Work on G17C A51G yielded a self-cleavage of 0.317. In the case of C18U C26U, the self-cleavage is reported as 0.848. With C18U C26A the self-cleavage was 0.591. C18A G29C gave a self-cleavage of 0.266. In the case of C18A G29U, the self-cleavage is reported as 0.821. Variant A16U G35C has a self-cleavage of 0.128. G17C U23C showed a self-cleavage of 0.208. With G17A A51G the self-cleavage was 0.782. In the case of G17A A51C, the self-cleavage is reported as 0.755. In the case of C18A U27C, the self-cleavage is reported as 0.135. C18A U27G showed a self-cleavage of 0.115. Variant C18G C63G has a self-cleavage of 0.199. For G17A G80C, the self-cleavage was 0.345. With G17A G52C the self-cleavage was 0.923. Variant C18A U47G has a self-cleavage of 0. C18A C26A gave a self-cleavage of 0.244. In the case of C18A C26U, the self-cleavage is reported as 0.312. For C18A C26G, the self-cleavage was 0.119. G17U G74A gave a self-cleavage of 0.129. Variant C18A C57U has a self-cleavage of 0.086. For G17A G39C, the self-cleavage was 0. C18G C41G gave a self-cleavage of 0.266. For A16U G53C, the self-cleavage was 1.01. For G17A U60A, the self-cleavage was 0.787. G17U U60C showed a self-cleavage of 0.601. Variant G17A C18U has a self-cleavage of 0.106. G17A C18A gave a self-cleavage of 0.252. Variant G17U C30G has a self-cleavage of 0.486. For G17U C30A, the self-cleavage was 0.831. Variant G17U G81A has a self-cleavage of 0.415. With G17U G81C the self-cleavage was 0.197. G17U G81U gave a self-cleavage of 0.381. Variant C18G U46C has a self-cleavage of 0. For C18G U23G, the self-cleavage was 0. Work on G17A A71G yielded a self-cleavage of 0.675. Variant G17A A71U has a self-cleavage of 0.499. Work on C18G U65A yielded a self-cleavage of 0.138. For C18G U60C, the self-cleavage was 0.0692. Work on C18G U60A yielded a self-cleavage of 0. C18A C75G showed a self-cleavage of 0.133. C18U C24U gave a self-cleavage of 0.141. C18A C33U showed a self-cleavage of 0.0489. A16U U23C gave a self-cleavage of 0.831. G17U G40U gave a self-cleavage of 0.381. G17C A77C showed a self-cleavage of 0.277. In the case of G17A G28U, the self-cleavage is reported as 0.122. For G17A C61A, the self-cleavage was 0.594. With G17C C21A the self-cleavage was 0.0519. Variant C18U A78U has a self-cleavage of 0.0707. C18U A78G gave a self-cleavage of 0.285. With G17A C63A the self-cleavage was 0.611. With G17A C63G the self-cleavage was 0.633. With G17A C85A the self-cleavage was 0.727. With G17C G50A the self-cleavage was 0.148. In the case of G17C G50U, the self-cleavage is reported as 0.332. With C18U A87U the self-cleavage was 0.853. Variant G17U G29A has a self-cleavage of 0.0314. For G17C G81A, the self-cleavage was 0.0978. G17C G81C showed a self-cleavage of 0.0898. Work on G17C C18A yielded a self-cleavage of 0. C18A C61A showed a self-cleavage of 0.0615. Variant C18A C61G has a self-cleavage of 0.172. Variant G17C A45G has a self-cleavage of 0.119. With G17C A45C the self-cleavage was 0.0519. With G17U U69C the self-cleavage was 0.869. C18A C62A gave a self-cleavage of 0.102. Work on C18A C36A yielded a self-cleavage of 0.0361. Variant C18A C36G has a self-cleavage of 0. In the case of C18A G67C, the self-cleavage is reported as 0.123. Work on C18A G67U yielded a self-cleavage of 0.117. Work on C18U C58A yielded a self-cleavage of 0.612. With C18U A43G the self-cleavage was 0.17. Variant C18U A43C has a self-cleavage of 0.295. Work on C18A G52A yielded a self-cleavage of 0.196. C18A G52U gave a self-cleavage of 0.237. G17C A83C showed a self-cleavage of 0.244. C18G G67A gave a self-cleavage of 0.101. C18U C41U showed a self-cleavage of 0.49. With G17U A51G the self-cleavage was 0.34. In the case of C18G G54A, the self-cleavage is reported as 0.125. In the case of C18G G54C, the self-cleavage is reported as 0.0475. G17U U23G showed a self-cleavage of 0.0692. C18U C32G gave a self-cleavage of 0.032. Work on G17A U47G yielded a self-cleavage of 0.657. Work on G17C U20C yielded a self-cleavage of 0. A16U G67A showed a self-cleavage of 0.988. In the case of G17U A70G, the self-cleavage is reported as 0.674. G17A G40C gave a self-cleavage of 0.113. Variant C18G C22G has a self-cleavage of 0.0755. C18G C44G gave a self-cleavage of 0.0723. For G17C C86A, the self-cleavage was 0.365. Variant G17C C86G has a self-cleavage of 0.131. In the case of G17C C22U, the self-cleavage is reported as 0.0639. In the case of A16U G59A, the self-cleavage is reported as 0.967. With C18G G38C the self-cleavage was 0. Variant C18G G38U has a self-cleavage of 0.0386. With C18A C22A the self-cleavage was 0.117. With G17A U69A the self-cleavage was 0.731. Work on G17U G50U yielded a self-cleavage of 0.609. G17U C57A showed a self-cleavage of 0.689. Variant C18G G73U has a self-cleavage of 0.119. Work on C18A C19G yielded a self-cleavage of 0.145. Variant C18A C19A has a self-cleavage of 0.128. With G17U A43G the self-cleavage was 0.237. With C18G C19G the self-cleavage was 0. G17C C41G showed a self-cleavage of 0.0354. With G17C C61G the self-cleavage was 0.519. C18G A83U showed a self-cleavage of 0.101. In the case of C18G G50A, the self-cleavage is reported as 0.138. For C18G G50U, the self-cleavage was 0.196. C18G G25U showed a self-cleavage of 0.0386. With G17U G76C the self-cleavage was 0.751. For G17C A56U, the self-cleavage was 0.427. Variant G17A G59A has a self-cleavage of 0.635. G17A G59C showed a self-cleavage of 0.66. With G17U G59A the self-cleavage was 0.465. A16U G76C gave a self-cleavage of 0.973. Work on A16U G76A yielded a self-cleavage of 0.939. For C18A U37C, the self-cleavage was 0.0361. C18A U37A showed a self-cleavage of 0.0462. For C18A U37G, the self-cleavage was 0.185. C18G U79C showed a self-cleavage of 0.0639. Variant G17C C26U has a self-cleavage of 0.359. Variant G17C C26A has a self-cleavage of 0.369. C18U C19A gave a self-cleavage of 0.0906. For C18G G82U, the self-cleavage was 0.219. With G17C G80A the self-cleavage was 0.0252. In the case of G17C G80U, the self-cleavage is reported as 0.0588. A16U G39U showed a self-cleavage of 0.403. For A16U G39A, the self-cleavage was 0.32. In the case of G17U C63U, the self-cleavage is reported as 0.47. In the case of G17A A77G, the self-cleavage is reported as 0.295. With G17A A77C the self-cleavage was 0.0978. For G17A G35C, the self-cleavage was 0.156. A16U G74U showed a self-cleavage of 0.394. For C18G A78C, the self-cleavage was 0. Work on C18G A78G yielded a self-cleavage of 0. In the case of C18G C26A, the self-cleavage is reported as 0.175. C18G C26G gave a self-cleavage of 0.0831. G17C U65G gave a self-cleavage of 0.249. G17C U65A gave a self-cleavage of 0.353. Variant C18A A45C has a self-cleavage of 0.208. C18G G80C showed a self-cleavage of 0.0707.
